Reference: patent US20250027955A1, “ETHYLENE RECEPTORS AND BINDING DOMAINS WITH MODIFIED BINDING KINETICS FOR ETHYLENE” (Trustees of Dartmouth College, priority 2022, published 2025)

Legend:
[1] = tested on: Arabidopsis seedlings, etr1 etr2 ein4 ers1 ers2 background; assay: Ethylene and 1-MCP response of ETR1^D25N lines lacking all five native ethylene receptors; assay type: in vivo; conditions: 1 μM ethylene
ETR1 = ETR1 (Arabidopsis thaliana, UniProt P49333); conditions: read-out: calculated dissociation constant (Kd); ethylene binding to ETR1; cited from earlier work
plants = conditions: in vivo; cited from earlier work
[2] = Copper binding assay: purified ETR1 transmembrane domain titrated to BCA2-Cu(I) complex, absorbance at 562 nm; conditions: ETR1-TMD expressed and purified from E. coli; Cu(I) stabilized by BCA
Source text: Cu(I) was stabilized by the copper chelator BCA, and then titrated with increasing ETR1 protein concentration.
Titration curves were corrected for nonspecific binding observed with chemically and thermally denatured receptor to maximize signal to background levels.

[3] = Saturable [14C]ethylene binding to yeast transgenically expressing ETR1; design: species or system Saccharomyces cerevisiae; conditions: for saturable [14C]ethylene binding: 0.21 μL L^−1 [14C]ethylene, with or without excess [12C]ethylene
Source text: Saturable ethylene binding of the ETR1 Asp25 mutants was examined by heterologous expression in yeast, with binding to [^14C]ethylene determined in the presence or absence of excess [^12C]ethylene (FIG. 2C). […] This included the ETR1^D25A mutant, consistent with previous observations, as well as for the ETR1^D25N and ETR1^D25Q mutants (FIG. 2C). Results from the ethylene binding assay are therefore consistent with the negative charge at D25 playing a significant role in mediating high-affinity ethylene binding.
[^14C]ethylene (specific activity=116 mCi/mmol) was obtained from ViTrax Radiochemicals (Placentia, CA) and trapped as the mercuric perchlorate complex as described. For ethylene binding assays in yeast, ETR1 was expressed in the yeast Saccharomyces cerevisiae (strain FY834) using the vector pYcDE-2 and a constitutive ADC1 promoter. The yeast growth media was supplemented with 40 μg L^−1 copper sulfate. Saturable ethylene binding to yeast was determined by analyzing binding of 0.3 g yeast per sample to 0.21 μL L^−1 [^14C]ethylene, in the presence or absence of excess [^12C]ethylene.

[4] = tested on: Arabidopsis seedlings, etr1 etr2 ein4 background; assay: Triple-response hypocotyl growth assay of dark-grown seedlings expressing ETR1 transgenes; assay type: in vivo; conditions: for rescue of growth of etr1 etr2 ein4 triple mutant in air: absence of ethylene, hypocotyl and adult shoot growth
Experimental: Functionality of the ETR1 Asp25 mutants was tested by transgenic expression in the etr1 etr2 ein4 Arabidopsis background.
Applicant can thus exploit the triple mutant to assess the ability of the ETR1 transgenes to rescue growth in the absence of ethylene as well as their ability to mediate a response to ethylene. Such an analysis indicates whether the encoded receptors are able to assume the ‘on’ conformation that represses the ethylene response in air, as well as the ‘off’ conformation that occurs in response to ethylene binding.
(§1) All Arabidopsis lines were of the Columbia (Col-0) accession. The etr1-1 and etr1-6 etr2-3 ein4-4 mutant lines have been described. Analysis of the triple response of dark-grown Arabidopsis seedlings to ethylene was performed as described previously. Briefly, seedlings were grown at 22° C. on vertically oriented plates on half-strength Murashige and Skoog basal medium with Gamborg's vitamins (pH 5.75; Sigma), 0.8% (w/v) agar, and 5 μM aminoethoxyvinylglycine (AVG) to inhibit ethylene biosynthesis. The stratified seed was exposed to light for 8 hr and then moved to the dark in the presence or absence of ethylene, with analysis of the seedling growth being performed following 4 days total growth. For short-term kinetic analysis of dark-grown seedlings, time-lapse imaging and growth rate analysis of hypocotyls were carried out as described previously.

[5] = tested on: Arabidopsis seedlings, etr1 etr2 ein4 background; assay: Short-term kinetic analysis of hypocotyl growth response to ethylene; assay type: in vivo; conditions: for short-term hypocotyl growth response to ethylene: 10 μL/L ethylene for 2 hr; for growth recovery upon ethylene removal: after 2 hr of 10 μL/L ethylene, 5-hr recovery in air
Experimental: Based on the differences Applicant uncovered for the long-term ethylene growth responses for the Asp25 mutants, Applicant also analyzed their short-term hypocotyl growth and molecular responses to ethylene. To this end, Applicant performed a short-term kinetic analysis, analyzing the initial hypocotyl growth inhibition in response to 10 μL/L ethylene and the growth recovery following the removal of ethylene after two hours of treatment (FIG. 6A).
as §1

[6] = tested on: OSR1, ERF1, EXP5 and EXPb1 expression; assay: Ethylene-dependent gene expression by RT-qPCR; assay type: in vivo, Arabidopsis; conditions: 0 or 1 μL L^−1 ethylene for 2 hr
Experimental: To examine the short-term molecular response, Applicant characterized ethylene-dependent gene expression for the ETR1 Asp25 mutants (FIG. 6B). Expression of OSR1 and ERF1 is induced, whereas the expression of EXP5 and EXPb1 is repressed, in response to ethylene.
RNA isolation and RT-qPCR was performed with three biological replicates and two technical replicates of each.

[7] = Saturable [14C]ethylene binding of Arabidopsis seedlings (in planta); conditions: two-week-old green seedlings, 0.31 μL L^−1 [14C]ethylene, 5 μM AVG
Experimental: [^14C]ethylene binding was examined in two-week-old green seedlings grown on media containing 5 μM aminoethoxyvinylglycine (AVG) to inhibit ethylene biosynthesis.
For ethylene binding assays with Arabidopsis seedlings, two-week-old green seedlings were used that had been grown on media containing 5 μl M AVG to inhibit ethylene biosynthesis, with ˜1 g seedlings per sample. The fresh weight of seedlings was determined, and each sample packaged into bags formed from a layer of cheese cloth and stapled at the top. Humidity was maintained in the ethylene binding chambers by use of moistened paper towels. Saturable ethylene binding was determined by analyzing binding to 0.31 μL L^−1 [^14C]ethylene, in the presence or absence of excess [^12C]ethylene.

[8] = tested on: dark-grown Arabidopsis seedlings; assay: Silver sensitivity assay: effect of silver on ethylene response of dark-grown seedlings; assay type: in vivo; conditions: transgene in etr1 etr2 ein4 background, 10 μL/L ethylene
Source text: As an initial test for the feasibility of the first hypothesis, Applicant asked if ETR1^D25N could still bind a metal cofactor, and therefore potentially ethylene, in planta. For this purpose, Applicant examined the effects of silver (Ag) on ethylene sensitivity. Silver is thought to substitute for the copper cofactor and, although receptors containing silver can still bind ethylene, they no longer transmit the signal, resulting in ethylene insensitivity.

[9] = previously reported; cited from earlier work
[10] = previously reported; cited from earlier work; remark: listed apart in the source
[11] = tested on: Arabidopsis seedlings, etr1 etr2 ein4 background; conditions: previously reported; cited from earlier work

ETR1, sequence (P49333 whole entry): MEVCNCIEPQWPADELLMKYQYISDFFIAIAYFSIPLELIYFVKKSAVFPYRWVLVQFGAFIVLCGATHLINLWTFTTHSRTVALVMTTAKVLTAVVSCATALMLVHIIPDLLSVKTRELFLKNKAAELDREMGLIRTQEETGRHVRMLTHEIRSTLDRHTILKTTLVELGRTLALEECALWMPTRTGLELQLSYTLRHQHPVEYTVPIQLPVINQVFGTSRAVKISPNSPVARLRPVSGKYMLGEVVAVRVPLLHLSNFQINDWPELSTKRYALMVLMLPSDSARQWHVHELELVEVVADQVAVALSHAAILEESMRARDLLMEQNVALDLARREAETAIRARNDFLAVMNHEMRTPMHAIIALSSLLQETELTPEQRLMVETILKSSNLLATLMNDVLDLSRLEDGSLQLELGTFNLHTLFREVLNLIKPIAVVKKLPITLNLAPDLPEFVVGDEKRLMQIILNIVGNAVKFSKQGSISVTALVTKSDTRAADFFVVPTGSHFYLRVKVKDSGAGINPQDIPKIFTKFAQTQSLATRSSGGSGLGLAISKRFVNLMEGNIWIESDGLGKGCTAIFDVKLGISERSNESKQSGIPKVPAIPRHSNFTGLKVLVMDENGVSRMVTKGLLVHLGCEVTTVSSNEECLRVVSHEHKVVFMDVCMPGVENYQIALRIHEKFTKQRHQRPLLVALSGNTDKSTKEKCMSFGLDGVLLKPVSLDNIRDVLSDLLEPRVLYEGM

| Molecule | copper binding [2] | saturable [14C]ethylene binding [3] | rescue of growth of etr1 etr2 ein4 triple mutant in air [4] | short-term hypocotyl growth response to ethylene [5] | growth recovery upon ethylene removal [5] | molecular response to ethylene (ethylene-dependent gene expression) [6] | ethylene binding in planta versus etr1 etr2 ein4 basal level [7] | ability of silver to block the ethylene response in transgene lines [8] | other results |
| --- | --- | --- | --- | --- | --- | --- | --- | --- | --- |
| CC1=CC1 [1-methylcyclopropene, reference compound] | – | – | – | – | – | – | – | – | effect of 1-MCP on ethylene response ([1]; ETR1^D25N (etr1 etr2 ein4 ers1 ers2) lines, 1 μM 1-MCP): blocked |
| C=C [Ethylene, ethylene] | – | – | – | – | – | – | – | – | Kd (ETR1): 2.4 nM; ethylene concentration plants respond to (as low as) (plants): 0.2 nL L^−1 |
| ETR1^wt: wild-type ethylene receptor ETR1 of Arabidopsis | copper binding | Saturable binding | rescued growth | rapid growth response to ethylene | growth recovery intermediate between that exhibited by the wild-type and the etr1 etr2 ein4 seedlings | consistent with what is observed in the wild-type control | significant increase in ethylene binding | restores the ability of silver to block the ethylene response | – |
| etr1-1: well-characterized ETR1 missense mutation Cys65Tyr; ethylene-insensitive control (protein, UniProt P49333 1-738, looked up, variant C65Y) Ethylene receptor 1: MEVCNCIEPQWPADELLMKYQYISDFFIAIAYFSIPLELIYFVKKSAVFPYRWVLVQFGAFIVLYGATHLINLWTFTTHSRTVALVMTTAKVLTAVVSCATALMLVHIIPDLLSVKTRELFLKNKAAELDREMGLIRTQEETGRHVRMLTHEIRSTLDRHTILKTTLVELGRTLALEECALWMPTRTGLELQLSYTLRHQHPVEYTVPIQLPVINQVFGTSRAVKISPNSPVARLRPVSGKYMLGEVVAVRVPLLHLSNFQINDWPELSTKRYALMVLMLPSDSARQWHVHELELVEVVADQVAVALSHAAILEESMRARDLLMEQNVALDLARREAETAIRARNDFLAVMNHEMRTPMHAIIALSSLLQETELTPEQRLMVETILKSSNLLATLMNDVLDLSRLEDGSLQLELGTFNLHTLFREVLNLIKPIAVVKKLPITLNLAPDLPEFVVGDEKRLMQIILNIVGNAVKFSKQGSISVTALVTKSDTRAADFFVVPTGSHFYLRVKVKDSGAGINPQDIPKIFTKFAQTQSLATRSSGGSGLGLAISKRFVNLMEGNIWIESDGLGKGCTAIFDVKLGISERSNESKQSGIPKVPAIPRHSNFTGLKVLVMDENGVSRMVTKGLLVHLGCEVTTVSSNEECLRVVSHEHKVVFMDVCMPGVENYQIALRIHEKFTKQRHQRPLLVALSGNTDKSTKEKCMSFGLDGVLLKPVSLDNIRDVLSDLLEPRVLYEGM | – | – | – | – | – | – | – | – | copper cofactor binding (previous studies) [9]: no longer binds the copper cofactor; ethylene binding (previous studies) [10]: no longer binds ethylene; ethylene sensitivity of plants (previous studies) [11]: confers dominant ethylene insensitivity |
| ETR1^D25N: ETR1 with site-directed mutation Asp25Asn, carboxylic acid changed to carboxamide (protein, UniProt P49333 1-738, looked up, variant D25N) Ethylene receptor 1: MEVCNCIEPQWPADELLMKYQYISNFFIAIAYFSIPLELIYFVKKSAVFPYRWVLVQFGAFIVLCGATHLINLWTFTTHSRTVALVMTTAKVLTAVVSCATALMLVHIIPDLLSVKTRELFLKNKAAELDREMGLIRTQEETGRHVRMLTHEIRSTLDRHTILKTTLVELGRTLALEECALWMPTRTGLELQLSYTLRHQHPVEYTVPIQLPVINQVFGTSRAVKISPNSPVARLRPVSGKYMLGEVVAVRVPLLHLSNFQINDWPELSTKRYALMVLMLPSDSARQWHVHELELVEVVADQVAVALSHAAILEESMRARDLLMEQNVALDLARREAETAIRARNDFLAVMNHEMRTPMHAIIALSSLLQETELTPEQRLMVETILKSSNLLATLMNDVLDLSRLEDGSLQLELGTFNLHTLFREVLNLIKPIAVVKKLPITLNLAPDLPEFVVGDEKRLMQIILNIVGNAVKFSKQGSISVTALVTKSDTRAADFFVVPTGSHFYLRVKVKDSGAGINPQDIPKIFTKFAQTQSLATRSSGGSGLGLAISKRFVNLMEGNIWIESDGLGKGCTAIFDVKLGISERSNESKQSGIPKVPAIPRHSNFTGLKVLVMDENGVSRMVTKGLLVHLGCEVTTVSSNEECLRVVSHEHKVVFMDVCMPGVENYQIALRIHEKFTKQRHQRPLLVALSGNTDKSTKEKCMSFGLDGVLLKPVSLDNIRDVLSDLLEPRVLYEGM | minimal residual binding | No saturable [^14C]ethylene binding was detected | rescued growth | rapid growth response to ethylene | growth recovery intermediate between that exhibited by the wild-type and the etr1 etr2 ein4 seedlings | consistent with what is observed in the wild-type control | no increase in ethylene binding | restores the ability of silver to block the ethylene response | koff increase ([3]; relative to ETR1^wt, suggested by inability to detect [14C]ethylene binding): at least 100 fold; hypocotyl growth response to ethylene ([4]; dark-grown seedlings, 0 or 1 μL L^−1 ethylene): rescued the hypocotyl growth response to ethylene to the same degree as ETR1^wt; response to ethylene without other native receptors ([1]; etr1 etr2 ein4 ers1 ers2 lines #11 and #15): still responded to ethylene |
